# In patent US20030207263, “Method of screening therapeutic agents” (published 2003):
# How the values were obtained:
# GST-Smad4 full length = GST-Smad4 full length (UniProt Q13485 Q13485:1-552); assay: EMSA; direct and specific; settings: tags: GST, E. coli; label: 33P
# Smad3 = Smad3 (Homo sapiens, UniProt P84022 P84022:1-425); assay: EMSA; not fused to GST; settings: label: 33P
# Smad2 = Smad2 (Homo sapiens, UniProt Q15796 Q15796:1-467); assay: EMSA; settings: label: 33P
# GST-Smad1 full length = GST-Smad1 full length (UniProt Q15797 Q15797:1-465); assay: EMSA; settings: tags: GST, E. coli; label: 33P
# GST-Smad1 full length, sequence (Q15797 whole entry, one chain of several): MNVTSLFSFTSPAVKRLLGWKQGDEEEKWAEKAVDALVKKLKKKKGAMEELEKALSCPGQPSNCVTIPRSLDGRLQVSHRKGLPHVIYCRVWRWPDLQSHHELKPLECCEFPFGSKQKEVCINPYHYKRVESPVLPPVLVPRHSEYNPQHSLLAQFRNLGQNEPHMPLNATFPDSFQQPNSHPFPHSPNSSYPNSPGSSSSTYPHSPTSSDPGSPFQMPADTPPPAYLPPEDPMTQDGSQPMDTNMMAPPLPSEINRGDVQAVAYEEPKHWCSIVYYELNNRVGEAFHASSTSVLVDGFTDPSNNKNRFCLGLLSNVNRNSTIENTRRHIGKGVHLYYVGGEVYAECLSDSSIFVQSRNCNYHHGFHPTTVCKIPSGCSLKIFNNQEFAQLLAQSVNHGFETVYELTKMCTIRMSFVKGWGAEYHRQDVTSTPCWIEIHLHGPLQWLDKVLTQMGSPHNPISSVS
# GST-Smad2 full length = GST-Smad2 full length (UniProt Q15796 Q15796:1-467); assay: EMSA; settings: tags: GST, E. coli; label: 33P
# GST-Smad2 full length, sequence (Q15796 whole entry, one chain of several): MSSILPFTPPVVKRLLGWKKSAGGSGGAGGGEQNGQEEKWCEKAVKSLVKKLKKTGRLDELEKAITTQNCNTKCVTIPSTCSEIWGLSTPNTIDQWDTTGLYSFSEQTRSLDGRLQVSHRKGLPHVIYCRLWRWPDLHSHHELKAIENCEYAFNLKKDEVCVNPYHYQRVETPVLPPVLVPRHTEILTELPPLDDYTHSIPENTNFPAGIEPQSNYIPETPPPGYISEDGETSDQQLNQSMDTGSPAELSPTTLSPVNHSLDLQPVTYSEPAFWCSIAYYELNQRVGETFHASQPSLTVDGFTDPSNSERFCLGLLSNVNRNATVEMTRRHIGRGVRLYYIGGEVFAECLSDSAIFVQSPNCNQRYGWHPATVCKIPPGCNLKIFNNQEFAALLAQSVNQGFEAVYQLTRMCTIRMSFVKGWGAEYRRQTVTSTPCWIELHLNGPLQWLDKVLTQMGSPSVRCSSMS
# Smad3, sequence (P84022 whole entry, the tested form may be a part, one chain of several): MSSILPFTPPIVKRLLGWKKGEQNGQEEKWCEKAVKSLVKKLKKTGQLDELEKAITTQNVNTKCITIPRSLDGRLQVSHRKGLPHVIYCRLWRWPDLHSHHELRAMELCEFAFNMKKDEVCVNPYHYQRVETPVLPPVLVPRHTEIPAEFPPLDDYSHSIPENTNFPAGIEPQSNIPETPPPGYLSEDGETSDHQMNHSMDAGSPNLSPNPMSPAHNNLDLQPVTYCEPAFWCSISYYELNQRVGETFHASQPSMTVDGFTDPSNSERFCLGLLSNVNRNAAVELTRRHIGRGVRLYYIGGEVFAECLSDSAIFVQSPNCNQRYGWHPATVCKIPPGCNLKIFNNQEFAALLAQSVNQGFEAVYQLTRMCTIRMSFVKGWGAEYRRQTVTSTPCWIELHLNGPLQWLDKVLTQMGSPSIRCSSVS
# GST-Smad4 full length, sequence (Q13485 whole entry, the tested form may be a part, one chain of several): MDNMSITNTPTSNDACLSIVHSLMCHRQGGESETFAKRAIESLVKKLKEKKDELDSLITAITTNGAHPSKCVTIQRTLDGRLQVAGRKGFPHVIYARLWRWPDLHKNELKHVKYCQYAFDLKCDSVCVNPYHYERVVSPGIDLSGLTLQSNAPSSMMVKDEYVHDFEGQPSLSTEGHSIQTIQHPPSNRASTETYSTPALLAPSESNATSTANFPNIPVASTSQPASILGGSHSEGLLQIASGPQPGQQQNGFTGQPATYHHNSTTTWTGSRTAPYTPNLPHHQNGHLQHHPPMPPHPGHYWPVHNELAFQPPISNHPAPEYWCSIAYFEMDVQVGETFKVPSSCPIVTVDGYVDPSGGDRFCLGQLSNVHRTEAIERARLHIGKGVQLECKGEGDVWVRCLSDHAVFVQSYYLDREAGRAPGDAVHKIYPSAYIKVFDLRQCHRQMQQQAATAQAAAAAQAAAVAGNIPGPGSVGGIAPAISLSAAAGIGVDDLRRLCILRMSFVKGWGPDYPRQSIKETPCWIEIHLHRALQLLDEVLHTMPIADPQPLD
# Smad2, sequence (Q15796 whole entry, one chain of several): as the sequence (Q15796 whole entry, one chain of several) above
binder,measurement,setting,value
CAGA probe (dsDNA) DNA 1: TCGAGAGCCAGACAAGGAGCCAGACAAGGAGCCAGACAC DNA 2: GTGTCTGGCTCCTTGTCTGGCTCCTTGTCTGGCTCTCGA,binding result,GST-Smad4 full length,binds
same,binding result,Smad3,binds
same,binding result,Smad2,no binding
same,binding result,GST-Smad1 full length,no binding
same,binding result,GST-Smad2 full length,no binding
